These results are taken from publication PMC2867295 (The Journal of Cell Biology, 2010).

The target of this test is mouse calmodulin, bacterially expressed and biotinylated (mouse, UniProt P0DP26 1-149, biotinylated (EZ-link Sulfo-NHS-LC-Biotinylation kit)). Nature of the test: far-Western, overlay or dot blot.

B1: Pcdp1-2, fragment aa 447–530 of mouse Pcdp1 with the uncharacterized predicted CaM-binding motif (domain or fragment)
chain: PLVNNVWLTRHRAQRRFQQAARKIMLERRLLSMLGAIRGMDKESILRKIIQVNGKLIQGENPSRGRRAHLKQEDNIWRYSLESE
With B1, the binding result is “binds”.
